The values below come from PMC6779417.

The assay addresses 70S ribosome (Escherichia coli MRE600), translating on an mRNA hairpin (Escherichia coli MRE600). Description: single-molecule fluorescence with optical tweezers.

Turning to “Cy3-labeled EF-G (S73C EF-G labeled with Cy3-monomaleimide) (from UniProt P0A6M8 1-704) (enzyme)”, the EF-G residence time on the ribosome before hairpin unwinding (tau unwinding) was found to be 0.25 s.
